In experiment [1] the target is T1, EGFR on transfected NIH 3T3 cells (human, UniProt P00533 25-1210).
T1 construct: whole, on cells
As to the kind of experiment: flow cytometry, EGFR-transfected NIH-3T3 cells. The protocol: (§1) After three washes in PBS-BSA 0.1%, cells were incubated with the fluorescein-conjugated anti-human IgG-Fragment Fc specific (Sigma) at 4° C. in the dark for 45 min. Cells were then washed three times and suspended in PBS for analysis using an EPICS flow cytometer (Beckman-Coulter, Fullerton, Calif.).
In general terms: A flow cytometer gives signals particle by particle.

Experiment [2] addresses T2, HER2 on transfected NIH 3T3 cells (human, UniProt P04626 23-1255).
T2 construct: whole, on cells
The experiment in a line: flow cytometry, HER2-transfected NIH-3T3 cells. The method, then:
as §1

For experiment [3], the target named is T3, HER3 receptor on cells (HER3-transfected NIH 3T3 fibroblasts; SKBR3 cells; BxPC3 cells) (human, UniProt P21860 20-1342).
T3 construct: whole, on cells; also called ErbB3
As to the kind of experiment: flow cytometry, HER3-transfected NIH-3T3 cells. The protocol: as §1

The target of experiment [4] is T4, EGFR/HER4 on transfected NIH 3T3 cells (human, UniProt P00533 25-1210; Q15303 26-1308).
T4 construct: whole, on cells; NIH 3T3 cells transfected with both EGFR and HER4
The experiment in a line: flow cytometry, EGFR/HER4-transfected NIH-3T3 cells. The method, then: as §1

Experiment [5] has as its target T5, HER2/HER3 complex on transfected NIH 3T3 cells (human, UniProt P04626 23-1255; P21860 20-1342).
T5 construct: whole, on cells; NIH 3T3 cells transfected with both HER2 and HER3; also called HER2-HER3 heterodimer
The experiment in a line: flow cytometry, HER2/HER3-transfected NIH-3T3 cells. The method, then: as §1

The target in experiment [6] is T6, human HER4-Fc (recombinant human extracellular domain ErbB4/HER4 Fc chimera, R&D Systems) (human, UniProt Q15303 26-651).
T6 construct: extracellular domain; Bought protein; Fc part of the bought chimera not given
T6 sequence (looked up): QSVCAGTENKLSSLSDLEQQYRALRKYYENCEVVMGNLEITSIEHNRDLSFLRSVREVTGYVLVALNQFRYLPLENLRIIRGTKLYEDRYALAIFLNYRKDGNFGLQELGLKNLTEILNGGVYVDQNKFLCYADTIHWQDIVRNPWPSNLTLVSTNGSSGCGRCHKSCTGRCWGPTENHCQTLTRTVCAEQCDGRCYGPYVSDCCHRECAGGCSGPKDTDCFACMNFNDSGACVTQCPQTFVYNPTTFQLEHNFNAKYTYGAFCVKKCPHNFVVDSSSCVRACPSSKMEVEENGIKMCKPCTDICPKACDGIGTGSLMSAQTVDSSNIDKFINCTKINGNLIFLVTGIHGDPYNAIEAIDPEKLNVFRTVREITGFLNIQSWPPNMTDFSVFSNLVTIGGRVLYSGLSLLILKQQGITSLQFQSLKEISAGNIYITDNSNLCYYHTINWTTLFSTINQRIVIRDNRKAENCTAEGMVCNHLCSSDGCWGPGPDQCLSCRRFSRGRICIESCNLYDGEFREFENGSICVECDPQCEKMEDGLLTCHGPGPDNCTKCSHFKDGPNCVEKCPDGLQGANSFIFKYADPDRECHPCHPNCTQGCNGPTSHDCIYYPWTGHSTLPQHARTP
The experiment in a line: ELISA, coated HER4-Fc 50 ng. The source says:
The bound IgG were detected by using HRP-F(ab′) 2 goat anti human IgG F(ab′)2 specific (Interchim).

Experiment [7] deals with T7, mouse HER3-Fc (recombinant mouse extracellular domain ErbB3/HER3 Fc chimera, R&D Systems) (mouse, UniProt Q61526 20-641).
T7 construct: extracellular domain; Bought protein; also called murine HER3; Fc part of the bought chimera not given
The experiment in a line: ELISA, coated mouse HER3-Fc 250 ng/ml.

In experiment [8] the target is T1, EGFR on transfected NIH 3T3 cells. As to the kind of experiment: flow cytometry, transfected NIH 3T3 cells. The method, then: as §1
The target in experiment [9] is T2, HER2 on transfected NIH 3T3 cells. As to the kind of experiment: flow cytometry, transfected NIH 3T3 cells. The protocol:
as §1

In experiment [10] the target is T4, EGFR/HER4 on transfected NIH 3T3 cells. The experiment in a line: flow cytometry, transfected NIH 3T3 cells. The protocol: as §1
In experiment [11] the target is T6, human HER4-Fc (recombinant human …). As to the kind of experiment: ELISA, coated HER4-Fc 250 ng, anti-V5-HRP. The method, then: The purified human Fabs at various concentrations were incubated for 2 hours at 37° C. in coated wells at 250 ng HER3-Fc (or HER4-Fc). The bound Fabs were detected by using HRP-labeled anti-V5 antibody (Invitrogen). Revelation was done at 450 nm in the presence of TMB (Sigma). The Fabs were tested simultaneously for binding on HER3-Fc, HER4-Fc and on Bovine serum Albumin as control.
Background: An ELISA detects its analyte on a solid surface through an enzyme-linked reagent.

T7 sequence (Q61526 20-641, change not shown): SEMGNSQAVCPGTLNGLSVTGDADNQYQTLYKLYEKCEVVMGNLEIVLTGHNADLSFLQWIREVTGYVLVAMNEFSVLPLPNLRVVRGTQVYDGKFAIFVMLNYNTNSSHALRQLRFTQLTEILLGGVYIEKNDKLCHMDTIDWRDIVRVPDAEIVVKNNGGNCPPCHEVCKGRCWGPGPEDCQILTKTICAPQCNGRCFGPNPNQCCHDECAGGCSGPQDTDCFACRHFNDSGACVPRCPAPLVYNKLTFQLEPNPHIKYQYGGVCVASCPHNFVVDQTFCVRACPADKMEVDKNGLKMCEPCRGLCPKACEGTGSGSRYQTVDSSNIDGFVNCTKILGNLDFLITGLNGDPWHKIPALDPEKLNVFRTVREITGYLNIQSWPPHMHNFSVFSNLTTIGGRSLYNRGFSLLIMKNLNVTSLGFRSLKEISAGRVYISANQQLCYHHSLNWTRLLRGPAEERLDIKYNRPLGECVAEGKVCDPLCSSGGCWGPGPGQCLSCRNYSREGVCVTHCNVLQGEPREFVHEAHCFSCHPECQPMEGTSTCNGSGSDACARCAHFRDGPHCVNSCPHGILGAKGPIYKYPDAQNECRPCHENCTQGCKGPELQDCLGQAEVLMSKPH

B1: U1-59 (Amgen/U3 Pharma-Daiichi Sankyo) (antibody, V domains shown)
VH: QVQLQQWGAGLLKPSETLSLTCAVYGGSFSGYYWSWIRQPPGKGLEWIGEINHSGSTNYNPSLKSRVTISVETSKNQFSLKLSSVTAADTAVYYCARDKWTWYFDLWGRGTLVTVSS
VL: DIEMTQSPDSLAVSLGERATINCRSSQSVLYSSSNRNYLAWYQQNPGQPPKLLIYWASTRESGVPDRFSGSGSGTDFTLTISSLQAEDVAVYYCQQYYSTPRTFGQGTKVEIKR
As to B1, the geometric mean was determined as 0.25 in [1]; 0.42 in experiment [2]; 9.32 in experiment [3]; 0.59 in experiment [4]; 15.5 in experiment [5].

B2: Ab#6 (Merrimack Pharmaceuticals) (antibody, V domains shown)
VH: EVQLLESGGGLVQPGGSLRLSCAASGFTFSHYVMAWVRQAPGKGLEWVSSISSSGGWTLYADSVKGRFTISRDNSKNTLYLQMNSLRAEDTAVYYCTRGLKMATIFDYWGQGTLVTVSS
VL: QSALTQPASVSGSPGQSITISCTGTSSDVGSYNVVSWYQQHPGKAPKLIIYEVSQRPSGVSNRFSGSKSGNTASLTISGLQTEDEADYYCCSYAGSSIFVIFGGGTKVTVL
Turning to B2, the geometric mean in [1] came to 0.21; in experiment [2], 0.35; in experiment [3], 7.77; in experiment [4], 0.51; in experiment [5], 14.1.

B3: mAb H3A-32 (purified human IgG) (antibody, V domains shown)
VH: EVQLVESGGGLVQPGGSLRLSCAASGFTFDDYAMHWVRQAPGKGLEWVSGISWNSGSIGYADSVKGRFTISRDNAKNSLYLQMNSLRAEDTAVYYCAREGQWPNYGMDVWGQGTTVTVSS
VL: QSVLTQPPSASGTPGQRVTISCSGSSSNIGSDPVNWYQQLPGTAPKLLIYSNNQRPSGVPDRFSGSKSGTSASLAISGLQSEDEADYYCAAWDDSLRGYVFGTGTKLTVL
notes: expressed as human IgG1 in transiently transfected HEK 293 cells, protein A purified
For B3, the binding result in experiment [6] is “no binding (tested: 0.5 µg/ml)”; in experiment [7], “binds”; in experiment [8] it was “no binding”; in [9], “no binding”; in [10], “no binding”. Also, the geometric mean worked out at 0.26 in experiment [1]; 0.44 in experiment [2]; 10.5 in [3]; 0.53 in [4]; 68.8 in [5].

B4: Fab H4B-121 (Fab, V domains shown)
VH: EVQLVESGGGLVQPGRSLRLSCAASGFTFDDYAMHWVRQAPGKGLEWVSGISWNSGSIGYADSVKGRFTISRDNAKNSLYLQMNSLRAEDTAVYYCAREGQWPNYGMDVWGQGTTVTVSS
VL: QSVLTQPPSVSAAPGQKVTISCPGSSSNIGNNYVSWYQQLPGTAPKLLIYDNNERPSGIPDRFSGSTSGTSATLDITDLQAEDEATYYCGAWDNTLGVYVLGTGTQLTVL
notes: Fab made in E. coli periplasm with a V5 tag and a C-terminal 6xHis tag
On to B4, for which the binding result in [11] is recorded as “no binding”.

B5: Fab H3A-32 (Fab, V domains shown)
VH: EVQLVESGGGLVQPGGSLRLSCAASGFTFDDYAMHWVRQAPGKGLEWVSGISWNSGSIGYADSVKGRFTISRDNAKNSLYLQMNSLRAEDTAVYYCAREGQWPNYGMDVWGQGTTVTVSS
VL: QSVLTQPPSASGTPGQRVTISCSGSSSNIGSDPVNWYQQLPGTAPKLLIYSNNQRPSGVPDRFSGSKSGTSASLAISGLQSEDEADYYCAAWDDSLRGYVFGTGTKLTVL
notes: Fab made in E. coli periplasm with a V5 tag and a C-terminal 6xHis tag; also called H3A-32 (Fab format)
In the case of B5, the binding result in experiment [11] is reported as “no binding”.

B6: Fab H3A-76 (Fab, V domains shown)
VH: EVQLVESGGGLVQPGRSLRLSCAASGFTFDDYAMHWVRQAPGKGLEWVSGISWNSGSIGYADSVKGRFTISRDNAKDSLYLQMNSLRAEDTAVYYCAREGQWPNYGMDVWGQGTTVTVSS
VL: QSVLTQPPSASGTPGQRVTISCSGSSSNIGSNSLNWYQQLPGTAPKLLIYSNNQRPPGVPDRFSGSRSGSSASLAISGLQSGDEGDYYCAAWDDSLKGYVFGTGTQLTVL
notes: Fab made in E. coli periplasm with a V5 tag and a C-terminal 6xHis tag; also called H3A-76 (Fab format)
As for B6, in experiment [11], the binding result is “no binding”.

B7: mAb H3A-76 (purified human IgG) (antibody, V domains shown)
VH: EVQLVESGGGLVQPGRSLRLSCAASGFTFDDYAMHWVRQAPGKGLEWVSGISWNSGSIGYADSVKGRFTISRDNAKDSLYLQMNSLRAEDTAVYYCAREGQWPNYGMDVWGQGTTVTVSS
VL: QSVLTQPPSASGTPGQRVTISCSGSSSNIGSNSLNWYQQLPGTAPKLLIYSNNQRPPGVPDRFSGSRSGSSASLAISGLQSGDEGDYYCAAWDDSLKGYVFGTGTQLTVL
notes: expressed as human IgG1 in HEK 293 cells
With B7, the binding result in experiment [6] was “no binding (tested: 0.5 µg/ml)”; in experiment [7] it was “binds”; in experiment [8] it was “no binding”; in experiment [9], “no binding”; in [10], “no binding”. Also, the geometric mean in experiment [1] was determined as 0.24; in experiment [2], 0.52; in experiment [3], 11.5; in experiment [4], 0.53; in experiment [5], 66.6.

B8: mAb H4B-05 (purified human IgG) (antibody, V domains shown)
VH: EVQLVESGGGLVQPGRSLRLSCAASGFTFDDYAMHWVRQAPGKGLEWVSGISWNSGSIGYADSVKGRFTISRDNAKNSLYLQMNSLRAEDTAVYYCAREGQWPNYGMDVWGQGTTVTVSS
VL: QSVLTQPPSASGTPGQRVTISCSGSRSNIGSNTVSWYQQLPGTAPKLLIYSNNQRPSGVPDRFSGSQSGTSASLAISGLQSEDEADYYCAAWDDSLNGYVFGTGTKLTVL
notes: as for B7
As for B8, the binding result in experiment [6] is recorded as “no binding (tested: 0.5 µg/ml)”; in experiment [7], “binds”; in experiment [8], “no binding”; in experiment [9], “no binding”; in [10] it was “no binding”. Besides, the geometric mean in experiment [1] turned out to be 0.28; in [2] it was 0.41; in experiment [3], 7.85; in experiment [4], 0.52; in [5], 13.3.

B9: mAb H3A-81 (purified human IgG) (antibody, V domains shown)
VH: EVQLVESGGGLVQPGGSLRLSCAASGFTFDDYAMHWVRQAPGKGLEWVSGISWNSGSIGYADSVKGRFTISRDNAKNSLYLQMNSLRAEDTAVYYCAREGQWPNYGMDVWGQGTTVTVSS
VL: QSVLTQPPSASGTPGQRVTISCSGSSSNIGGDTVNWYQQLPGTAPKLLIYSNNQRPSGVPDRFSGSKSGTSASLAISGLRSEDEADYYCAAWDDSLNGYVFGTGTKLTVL
notes: as for B7
Turning to B9, the binding result in [6] was “no binding (tested: 0.5 µg/ml)”; in [7], “binds”; in [8], “no binding”; in experiment [9], “no binding”; in [10], “no binding”. Moreover, the geometric mean in experiment [1] came to 0.26; in [2], 0.5; in [3], 10.6; in experiment [4], 0.53; in [5] it was 68.5.

B10: Fab H3A-81 (Fab, V domains shown)
VH: EVQLVESGGGLVQPGGSLRLSCAASGFTFDDYAMHWVRQAPGKGLEWVSGISWNSGSIGYADSVKGRFTISRDNAKNSLYLQMNSLRAEDTAVYYCAREGQWPNYGMDVWGQGTTVTVSS
VL: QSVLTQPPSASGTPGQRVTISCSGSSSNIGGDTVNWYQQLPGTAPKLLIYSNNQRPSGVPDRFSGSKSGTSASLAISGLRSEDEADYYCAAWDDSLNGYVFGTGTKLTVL
notes: Fab made in E. coli periplasm with a V5 tag and a C-terminal 6xHis tag; also called H3A-81 (Fab format)
Take B10: the binding result in experiment [11] was “no binding”.

B11: Fab H4B-05 (Fab, V domains shown)
VH: EVQLVESGGGLVQPGRSLRLSCAASGFTFDDYAMHWVRQAPGKGLEWVSGISWNSGSIGYADSVKGRFTISRDNAKNSLYLQMNSLRAEDTAVYYCAREGQWPNYGMDVWGQGTTVTVSS
VL: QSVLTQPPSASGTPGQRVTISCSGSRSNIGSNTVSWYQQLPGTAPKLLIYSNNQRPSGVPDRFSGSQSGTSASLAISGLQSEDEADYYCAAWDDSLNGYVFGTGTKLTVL
notes: Fab made in E. coli periplasm with a V5 tag and a C-terminal 6xHis tag; also called H4B-05 (Fab format)
B11: the binding result in experiment [11] is listed as “no binding”.

Source of the values: patent US20140141019A1 (INSERM INSTITUT NATIONALDE LA SENTE ET DE LA RECHERCHE …, published 2014).
